# Laboratory results from patent US20230181753A1 (INSERM INSTITUT NATIONAL DE LA SANTE ET DE LA RECHERCHE …, published 2023).
# T1: ICOS (Inducible T cell costimulator) (UniProt Q9Y6W8 21-199, limits assumed)
# T1 sequence (looked up): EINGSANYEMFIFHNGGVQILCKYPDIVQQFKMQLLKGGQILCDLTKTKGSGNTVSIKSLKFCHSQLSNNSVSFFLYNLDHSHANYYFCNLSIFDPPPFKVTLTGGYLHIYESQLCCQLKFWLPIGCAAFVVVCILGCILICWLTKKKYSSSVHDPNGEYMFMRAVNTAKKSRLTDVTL
# Legend:
# [1] = substrate: ICOS (Inducible T cell costimulator) (UniProt Q9Y6W8); test: flow cytometry, staining of HUT78 cells
# [2] = substrate: ICOS (Inducible T cell costimulator) (UniProt Q9Y6W8); test: flow cytometry, staining of MyLa cells
# [3] = substrate: ICOS (Inducible T cell costimulator) (UniProt Q9Y6W8); test: flow cytometry, staining of MJ cells
# [4] = target: T1, ICOS (Inducible T cell costimulator); test: cell-based or functional assay
MFI ratio [1],MFI ratio [2],MFI ratio [3],Binder,"IC50, cell viability (alamarBlue), HUT78 cells [4]","IC50, cell viability (alamarBlue), Jurkat-ICOS cells [4]","IC50, cell viability (alamarBlue), MJ cells [4]","IC50, cell viability (alamarBlue), MyLa cells [4]"
4.5,144,96,"314.8 mAb (antibody, V domains shown) VH: QVQLQQPGTELMKPGASVKLSCKASGYTFTTYWMHWVKQRPGQGLEWIGEIDPSDSYVNYNQNFKGKATLTVDKSSSTAYIQLSSLTSEDSAVYFCARSPDYYGTSLAWFDYWGQGTLVTVST VL: DIVMTQAAPSVPVTPGESVSISCRSSKSPLHSNGNIYLYWFLQRPGQSPQLLIYRMSNLASGVPDRFSGSGSGTTFTLKISRVEAEDVGVYYCMQHLEYPYTFGGGTKLEIK",,,,
,,,"anti-ICOS-PBD ADC (antibody, V domains shown, coupled to pyrrolobenzodiazepine (PBD); site and linker not stated) VH: QVQLQQPGTELMKPGASVKLSCKASGYTFTTYWMHWVKQRPGQGLEWIGEIDPSDSYVNYNQNFKGKATLTVDKSSSTAYIQLSSLTSEDSAVYFCARSPDYYGTSLAWFDYWGQGTLVTVST VL: DIVMTQAAPSVPVTPGESVSISCRSSKSPLHSNGNIYLYWFLQRPGQSPQLLIYRMSNLASGVPDRFSGSGSGTTFTLKISRVEAEDVGVYYCMQHLEYPYTFGGGTKLEIK",9 ng/mL,0.7 ng/mL,0.8 ng/mL,1.2 ng/mL
,,,"anti-ICOS-MMAE ADC (anti-ICOS 314.8-MMAE) (antibody, V domains shown, coupled to MMAE; site and linker not stated) VH: QVQLQQPGTELMKPGASVKLSCKASGYTFTTYWMHWVKQRPGQGLEWIGEIDPSDSYVNYNQNFKGKATLTVDKSSSTAYIQLSSLTSEDSAVYFCARSPDYYGTSLAWFDYWGQGTLVTVST VL: DIVMTQAAPSVPVTPGESVSISCRSSKSPLHSNGNIYLYWFLQRPGQSPQLLIYRMSNLASGVPDRFSGSGSGTTFTLKISRVEAEDVGVYYCMQHLEYPYTFGGGTKLEIK",,6.7 ng/mL,36.2 ng/mL,8.2 ng/mL
